Source: patent US20020183271A1, “Methods of treatment involving human MDA-7” (priority 2000, published 2002)

Columns and labels:
[1] = test system: secretion of soluble MDA-7 protein; assay: Inhibition of glycosylation and secretion of MDA-7 protein; assay type: cell-based
Excerpt: Two antibiotics, Tunicamycin and Brefeldin A, have been used to provide a more detailed characterization of the secretion of soluble MDA-7. N-linked glycosylation plays an important role in a protein's ultimate processing, whether it is sorted to a lysosomal pathway, or translocated to the cell surface or secreted. Using Tunicamycin, the N-linked glycosylation process in the […] can be inhibited, thus inhibiting protein secretion or other sugar-dependent sorting processes.

[2] = test system: Human umbilical vein endothelial cells (HUVEC); assay: Tube formation assay (endothelial differentiation), vectors and Suramin; assay type: cell-based; conditions: vectors 10,000 vp/cell; Suramin 50 μM; Matrigel
Experimental: Human umbilical vein endothelial cells (HUVECs; Clonetics) were seeded on 1% gelatin-coated plates and incubated at 37° C. for 24 hours. […] Cells exposed to medium alone served as negative controls while cells exposed to Suramin (50 μM) served as positive controls. After a 48-hour incubation period (37° C. in serum-containing medium), infected cells were harvested, counted, and added to Matrigel-coated 24-well plates in triplicate (1.2×10^5 cells per well). Twenty-four hours later, cells were fixed with 10% buffered formalin and examined for differentiation (tube formation) by using an Olympus IX-70 inverted bright-field microscope at 4× and 10× magnification. cl Example 1
Tube Formation Assay. Human umbilical vein endothelial cells (HUVECs; Clonetics) were seeded on 1% gelatin-coated plates and incubated at 37° C. for 24 hours. After incubation, cells were infected for 1 hour with Ad-luc or Ad-mda 7 at 10,000 vp/cell in serum-free medium. Cells exposed to medium alone served as negative controls while cells exposed to Suramin (50 μM) served as positive controls. After a 48-hour incubation period (37° C. in serum-containing medium), infected cells were harvested, counted, and added to Matrigel-coated 24-well plates in triplicate (1.2×10^5 cells per well). […]

MCF-7 = assay: Ad-mda7 growth inhibition, 3H-thymidine incorporation assay; assay type: cell-based, human; conditions: MCF-7 cells; four days after treatment; tamoxifen 1 ng/ml
Experimental: (§1) Cells were either plated at 500-2000 cells/well in 96-well format for Tritiated thymidine incoporation-Cell Proliferation Assay or plated at 10^5-10^6 cells/well in a 6 well plate for protein expression or Apoptosis assays or plated at 10^4 cells/well for Alamar-blue assay. […]
(§2) Growth inhibition of cells after treatment is measured by analysis of DNA-synthesis. Briefly, for the ^3H-thymidine incorporation assay cells will be plated at 200-5000 cell per well in a 96-well format and grown in DMEM/10% FBS in a 5% CO2 incubator at 37° C. overnight. The next day the media is aspirated and replace with […] DMEM/10% FBS containing the appropriate adenovirus at the appropriate MOI. Cells will be incubated with infecting media for 1 to 4 hrs and then diluted to […] total volume and grown overnight. Media is replaced with DMEM/10% FBS/mCi ^3H-thymidine and grown for 16 to 18 hrs. Stock solution of 100 uCi/mL of H3-thymidine (Amersham) is prepared by dilution into high glucose DMEM (GIBCO). ^3H-Thymidine was added to each well at a final concentration of 1 μCi/mL. The reaction is stopped 15 hours later by removal of the supernatant from recipient cells. […] The filter were dried and analyzed in Matrix 9600 (Packard) and cell proliferation using Viral Particles/cell against Tritiated Thymidine uptake counts were plotted.

T47D = assay: as above; assay type: cell-based, human; conditions: T47D cells; four days after treatment
Experimental: as §1, §2

H1299 cells = assay: Soluble MDA-7 supernatant killing, trypan blue exclusion; assay type: cell-based, human; conditions: supernatants, 48 hours
Experimental: FIG. 11A. Soluble MDA-7 (sMDA7) kills tumor cells. […] All the supernatants used in this experiment were filtered through a 0.1 micron filter prior to challenge with H1299 cells. FIG. 11B. H1299 cells were challenged with soluble MDA-7 supernatant from four different stocks and percentage dead cells evaluated after 48 hours: 1) 293*NF: Non-filtered supernatant obtained from modified 293 cells (cells were grown in serum-free conditions); 2) 293*F: 0.1 micron filtered supernatant obtained from modified 293 cells; 3) 293F: 0.1 micron filtered supernatant obtained from regular 293 cells (FBS+); and 4) H1299F: 0.1 micron filtered supernatant obtained from H1299 cells. D0 is non-diluted material whereas D1:1; D1:5, D1:10 indicate the dilutions used.
The secreted form of MDA-7 (sMDA-7) was produced using various cell lines and evaluated for anti-tumor activity. Soluble MDA-7 was analyzed for its anti-proliferative effects on H1299 cells. Briefly, H1299 cells were plated at cell density of 10^3 cells/chamber in Nunc chamber slides. 24 hours later, the cells were challenged with supernatants obtained from H1299 cells transduced with either Ad-mda-7 or Ad-luc (at 1000 vp/cell infection). Ad-mda7 and Ad-luc viruses were also used as additional controls. […]

PBMC [3] = assay: Secondary cytokine secretion from PBMC (ELISA); assay type: cell-based, human
Experimental: FIG. 24. Effect of MDA-7 and IL-10 on inflammatory cytokine secretion from PBMC. Two ml/well (2×10^6 cells/ml) PBMC were plated in a 24 well plate and cultured untreated or with indicated amounts of MDA-7 (B 2 ng/ml; D,F 20 ng/ml), 5 μg/ml LPS, 5 μg/ml PHA, 500 U/ml IL-10 (˜17 ng/ml; R & D Systems, Minneapolis, Minn.) or combination of IL-10 and MDA-7. Supernatants were harvested at 48 hours and analyzed for cytokine content by ELISA (Endogen, Corp) according to manufacturer's instructions. Data from one representative donor are reported. * Indicates values above standard curve.
FIG. 25. […] Human PBMC were treated with 5 μg/ml LPS, 500 U/ml IL-10, 5 ng/ml MDA-7 or combinations for 48 hours. An equal volume of an S column fraction not containing MDA-7 as determined by Western (an MDA-7 Neg Fraction) was used as a control for buffer/salt content. Supernatants were harvested at 48 hours and analyzed for cytokine content by ELISA (Endogen, Corp) according to manufacturer's instructions. Data from one representative donor are reported. * Indicates value greater than 500 pg/ml IL-1β. ** Actual values are 539 pg/ml IL-12 and 893 pg/ml GM-CSF. Data from one representative donor are reported.
Activation of PBMC: PBMC were isolated from the peripheral blood of normal healthy donors by centrifugation over Histopaque (Sigma, St. Louis, Mo.). Cells were cultured at a concentration of 1×10^6 cells/ml in RPMI-1640 based media supplemented with L-glutamine, Hepes, penicillin, streptomycin, and 10% human AB serum (Pelfreez, Brown Deer, Wis.) for 72 hr in the presence of PHA-P at 5 μg/ml or LPS 10 μg/ml (both from Sigma, St. Louis, Mo.). Four hours prior to harvest Brefeldin A (BFA, Sigma-Aldrich) was added at a final concentration of 10 μg/ml. The supernatants as well as cells were then harvested.
ELISA assays. The ELISA reaction to detect human MDA-7 was carried out in 96-well plates using standard techniques and an antibody pair selected for sentivity. Elisa assays for cytokines were perfomed in an identical manner, employing commercially available kits as designated in the figure legends.

PBMC [4] = assay: PBMC proliferation (thymidine uptake); assay type: cell-based, human; conditions: 4 days of coculture; three donors
Excerpt: Some cytokines can also function as growth factors. Therefore the proliferative simulation function of MDA-7 was addressed using PBMC. IL-10 was included as a negative cytokine control.

HUVEC cells = assay: Tube formation with purified MDA-7 protein; assay type: cell-based, human
Experimental: HUVEC cells were administered increasing amounts of MDA-7 protein purified from 293-mda7 cells. Doses that were evaluated ranged from 0.5-100 ng/ml. The ED50 of MDA-7 ranged from 5-50 ng/ml. Endothelial differentiation in the cells was inhibited by MDA-7 protein, but not control cells, based on tube formation.
HUVEC cells were given varying doses of MDA-7 protein purified from 293-mda7 cells (lots 1-6) or from baculovirus exoressing mda-7. A positive control of Ad-mda7 and a negative control of Ad-luc were included in most assays.

[5] = 500 U/ml IL-10, 5 ng/ml MDA-7, 48 hours
[6] = 500 U/ml IL-10 added to PBMC stimulated by MDA-7

In the case of `C[C@H]1CCC/C=C/[C@@H]2C[C@H](O)C[C@H]2[C@H](O)/C=C/C(=O)O1` [Brefeldin A], the “secretion of soluble MDA-7 protein” value [1] is reported as “effectively inhibit the secretion of soluble MDA-7 protein”.

With Tunicamycin the “secretion of soluble MDA-7 protein” value [1] was “effectively inhibit the secretion of soluble MDA-7 protein”.

For `Cc1ccc(C(=O)Nc2ccc(S(=O)(=O)O)c3cc(S(=O)(=O)O)cc(S(=O)(=O)O)c23)cc1NC(=O)c1cccc(NC(=O)Nc2cccc(C(=O)Nc3cc(C(=O)Nc4ccc(S(=O)(=O)O)c5cc(S(=O)(=O)O)cc(S(=O)(=O)O)c45)ccc3C)c2)c1` [Suramin], the endothelial tube formation [2] was “known inhibitor of tube formation”.

For `CC/C(=C(\c1ccccc1)c1ccc(OCCN(C)C)cc1)c1ccccc1` [tamoxifen], the “DNA replication (tritiated thymidine assay)” value (MCF-7) was “little effect” and the “DNA replication (tritiated thymidine assay)” value (T47D) was “minimal effect”.

B1: soluble MDA-7: secreted form of MDA-7 in filtered supernatants of cells transduced with Ad-mda7 (protein, UniProt Q13007 52-206, looked up)
Interleukin-24: QEFHFGPCQVKGVVPQKLWEAFWAVKDTMQAQDNITSARLLQQEVLQNVSDAESCYLVHTLLEFYLKTVFKNYHNRTVEVRTLKSFSTLANNFVLIVSQLQPSQENEMFSIRDSAHRRFLLFRRAFKQLDVEAALTKALGEVDILLTWMQKFYKL
With B1 the “killing of H1299 cells” value (H1299 cells) was “concentration-dependent bystander killing effect” and the “killing of H1299 cells” value (H1299 cells; listed as soluble MDA-7 protein) was “showed H1299 killing”.

B2: recombinant MDA-7 expressed in E. coli and S. cerevisiae: recombinant MDA-7 expressed in E. coli and S. cerevisiae, used in preliminary experiments (protein, UniProt Q13007 52-206, looked up)
Interleukin-24: QEFHFGPCQVKGVVPQKLWEAFWAVKDTMQAQDNITSARLLQQEVLQNVSDAESCYLVHTLLEFYLKTVFKNYHNRTVEVRTLKSFSTLANNFVLIVSQLQPSQENEMFSIRDSAHRRFLLFRRAFKQLDVEAALTKALGEVDILLTWMQKFYKL
B2 was tested, and the “secondary cytokine production, preliminary experiments” value (PBMC [3]; very high doses (μg/ml quantities) required) was “robust production of IL-6, TNFα, and IFNγ, very low levels of GM-CSF and IL-10, and no IL-2, IL-4, and IL-5” and the “proliferation (thymidine uptake)” value (PBMC [4]) was “did not show a proliferative response”.

B3: MDA-7: human MDA-7 protein secreted by and purified from stably transfected 293 cells (293-mda7) (protein)
chain: QEFHFGPCQVKGVVPQKLWEAFWAVKDTMQAQDNITSARLLQQEVLQNVSDAESCYLVHTLLEFYLKTVFKNYHNRTVEVRTLKSFSTLANNFVLIVSQLQPSQENEMFSIRDSAHRRFLLFRRAFKQLDVEAALTKALGEVDILLTWMQKFYKL
For B3, the “lowest doses inhibiting tube formation” value (HUVEC cells; MDA-7 protein from 293-mda7 cells (lots 1-6) or baculovirus) was 0.5 to 10 ng/mL, the “ED50 (inhibition of endothelial differentiation, tube formation)” value (HUVEC cells; MDA-7 protein purified from 293-mda7 cells, doses 0.5-100 ng/ml) was 5 to 50 ng/mL and the IL-6 secretion (PBMC [3]; 2 ng/ml of MDA-7, above the standard curve of the ELISA kit) was “greater than 800 pg/ml”. The “IL-1β, IL-12 and GM-CSF secretion” value (PBMC [3]; 5 ng/ml MDA-7, 48 hours) was “induces IL-1β, IL-12 and GM-CSF secretion”, the “MDA-7 concentration stimulating maximal IL-6 secretion” value (PBMC [3]; 48 hours, ELISA) was 200 pg/mL and the “dose required to achieve optimal levels of TNFα and IFNγ secretion” value (PBMC [3]; 48 hours, ELISA) was 2 ng/mL. The “induction of TNFα compared with LPS” value (PBMC [3]; LPS 5 μg/ml positive control) was “more potent inducer than the positive stimulation control LPS” and the “proliferation (thymidine uptake)” value (PBMC [4]) was “did not induce significant proliferation”.

B4: IL-10: Human recombinant IL-10 purchased from R&D Systems (protein, UniProt P22301 19-178, looked up)
Interleukin-10: SPGQGTQSENSCTHFPGNLPNMLRDLRDAFSRVKTFFQMKDQLDNLLLKESLLEDFKGYLGCQALSEMIQFYLEEVMPQAENQDPDIKAHVNSLGENLKTLRLRLRRCHRFLPCENKSKAVEQVKNAFNKLQEKGIYKAMSEFDIFINYIEAYMTMKIRN
In the case of B4, the “effect of IL-10 on GM-CSF production” value (PBMC [3]; [5]) is reported as “partially inhibited”, the “effect of IL-10 on IL-1β production” value (PBMC [3]; [5]) is reported as “partially inhibited” and the “effect of IL-10 on IL-12 production” value (PBMC [3]; [5]) is reported as “completely inhibited”. The “effect of IL-10 on IFNγ induction by MDA-7” value (PBMC [3]; [6]) was “completely abrogated”, the “effect of IL-10 on IL-6 induction by MDA-7” value (PBMC [3]; [6]) was “partially blocked” and the “effect of IL-10 on TNFα induction by MDA-7” value (PBMC [3]; [6]) was “completely abrogated”. For the same molecule, the “proliferation (thymidine uptake)” value (PBMC [4]) was “did not induce increased thymidine uptake”.
